Data as given in patent US20150017171A1 (CHINA SYNTHETIC RUBBER, published 2015).
Residue numbers refer to the chain shown, from its start. Blank lines part the entries; values can stand above or below the binder they belong to.

Tests used:
[1] = biological target: T1, recombinant human PLVAP51-442 protein (extracellular domain, His tag removed by thrombin) (human, UniProt Q9BX97 51-442); assay: competition ELISA on coated recombinant PLVAP; competitor biotinylated murine KFCC-GY5 at 0.1 µg/ml
T1 construct: also called recombinant PLVAP protein; recombinant PLVAP
T1 sequence: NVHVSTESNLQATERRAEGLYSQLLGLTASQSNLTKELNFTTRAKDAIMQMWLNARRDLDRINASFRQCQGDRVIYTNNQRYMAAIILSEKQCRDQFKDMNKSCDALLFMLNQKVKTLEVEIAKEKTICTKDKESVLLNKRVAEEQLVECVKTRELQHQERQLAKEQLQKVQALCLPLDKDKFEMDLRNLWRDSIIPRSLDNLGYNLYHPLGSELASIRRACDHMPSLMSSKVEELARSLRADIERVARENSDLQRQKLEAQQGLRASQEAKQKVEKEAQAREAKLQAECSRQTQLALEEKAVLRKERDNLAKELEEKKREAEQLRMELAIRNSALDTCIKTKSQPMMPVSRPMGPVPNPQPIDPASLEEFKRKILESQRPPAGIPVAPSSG
Procedure: (§1) The binding of chimeric KFCC-GY4 and KFCC-GY5 antibodies to recombinant PLVAP protein was assessed in a competition ELISA. Either a dilution series of chimeric or control antibody from 30 μg/ml to 0.014 μg/m (final concentration) was premixed with a constant concentration of biotinylated murine KFCC-GY4 (0.3 μg/ml, final concentration) or a dilution series of chimeric or control antibody from 10 μg/ml to 0.004 μg/m (final concentration) was premixed with a constant concentration of biotinylated murine KFCC-GY5 (0.1 μg/ml, final concentration) before incubating for 1 hour at room temperature on a Nunc Immuno MaxiSorp 96 well flat bottom microtitre plate (Fisher Catalogue No. DIS-971-030J) precoated with 1 μg/ml recombinant PLVAP protein diluted in PBS. The binding of the biotinylated mAb was determined by detection with streptavidin-HRP and TMB substrate.
(§2) Therefore, the correct variable region sequences for the parent murine monoclonal antibodies were identified and cloned.

[2] = biological target: T1, recombinant human PLVAP51-442 protein …; assay: Biacore T-100
[3] = biological target: T1, recombinant human PLVAP51-442 protein …; assay: competition ELISA on coated recombinant PLVAP; competitor biotinylated murine KFCC-GY5
Procedure: (§3) The binding of KFCC-GY4 and KFCC-GY5 human antibody variants to recombinant PLVAP was assessed in a competition ELISA. Either a dilution series of variant or control antibody from 30 μg/m to 0.014 μg/m (final concentration) was premixed with a constant concentration of biotinylated murine KFCC-GY4 (0.3 μg/ml, final concentration) or a dilution series of variant or control antibody from 10 μg/m to 0.004 μg/ml (final concentration) was premixed with a constant concentration of biotinylated murine KFCC-GY5 (0.1 μg/ml, final concentration) before incubating for 1 hour at room temperature on a Nunc Immuno MaxiSorp 96 well flat bottom microtitre plate (Fisher Catalogue No. DIS-971-030J) precoated with 1 μg/m recombinant “protein P” diluted in PBS. The binding of the biotinylated mAb was determined by detection with streptavidin-HRP and TMB substrate. After stopping the reaction with 3M HCl, absorbance was measured at 450 nm on a Dynex Technologies MRX TC II plate reader and the binding curves of the test antibodies compared against the mouse reference standard.
Similarly, the four lead variants of IgG4-GY5 and murine KFCC-GY5 antibodies have very similar binding profiles (FIG. 49). All of the lead variants shown are within two-fold of the original murine monoclonal antibody.

[4] = biological target: T1, recombinant human PLVAP51-442 protein …; assay: competition ELISA on coated recombinant PLVAP; competitor biotinylated murine KFCC-GY4
Procedure: as §3
The five lead variants of IgG4-GY4 and murine KFCC-GY4 antibodies have very similar binding profiles (FIG. 48). All of the lead variants shown are within two-fold of the original murine monoclonal antibody.

His-tagged human CEACAM6 = biological target: T2, His-tagged human CEACAM6 (human, UniProt P40199 35-320, limits assumed); assay: immunoblot of total protein extract of E. coli expressing the His-tagged protein
T2 construct: also called human CEACAM6 protein unrelated to PLVAP (lane 4); not shown: His tag
T2 sequence (looked up): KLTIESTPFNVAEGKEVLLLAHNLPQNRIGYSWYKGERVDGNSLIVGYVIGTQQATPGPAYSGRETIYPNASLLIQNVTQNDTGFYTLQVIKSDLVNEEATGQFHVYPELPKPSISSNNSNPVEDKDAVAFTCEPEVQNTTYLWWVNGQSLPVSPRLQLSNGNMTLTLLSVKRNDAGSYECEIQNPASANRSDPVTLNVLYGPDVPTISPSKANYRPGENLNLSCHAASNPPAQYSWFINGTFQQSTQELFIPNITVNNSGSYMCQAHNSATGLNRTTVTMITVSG
From the text: (§4) Molecular weight protein standards are resolved in Lane M.

[5] = biological target: T3, His-tagged human PLVAP51-292 (human, UniProt Q9BX97 51-292); assay: as above
T3 construct: also called N-terminal portion of the extracellular domain; not shown: His tag and vector residues of pET-15b
T3 sequence: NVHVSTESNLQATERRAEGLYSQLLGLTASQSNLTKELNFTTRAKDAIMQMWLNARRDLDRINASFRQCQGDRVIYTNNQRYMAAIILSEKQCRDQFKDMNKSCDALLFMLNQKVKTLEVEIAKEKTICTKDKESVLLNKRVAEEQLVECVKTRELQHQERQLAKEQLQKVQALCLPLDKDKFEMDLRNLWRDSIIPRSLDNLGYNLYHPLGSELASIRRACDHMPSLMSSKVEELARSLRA
From the text: as §4

[6] = biological target: T1, recombinant human PLVAP51-442 protein …; assay: competition ELISA on coated recombinant PLVAP; competitor biotinylated murine KFCC-GY4 at 0.3 µg/ml
Procedure: as §1, §2

[7] = biological target: T1, recombinant human PLVAP51-442 protein …; assay: ANTQ300 quartz crystal microbalance

IC50 [1]: 0.4 µg/mL
Kd [2]: 0.978 nM
koff [2]: 3.01e-05 s⁻¹
kon [2]: 30700 M⁻¹ s⁻¹
B1: chimeric KFCC-GY5 antibody (CSR02) (antibody, human IgG4, V domains shown)
VH: QVQLQQPGAELVRPGASVKLSCKASGYTFTSNYINWVKQRPGQGLEWIGNIYPSDGFTNYNQKFKDRATLTVDKSSSTAYMQLSSPTSEDSAVYYCTRNFDVWGAGTTVTVSS
VL: DVVMTQTPLSLPVSLGDQASISCRSSQSLVHSNGNTYLQWYLQKPGQSPKLLIYTVSNRFSGVPDRFSGSGSGPDFTLKISRVEAEDLGVYFCSQSTHVPFTFGSGTKLEIK
notes: also called Chimeric GY5; chimeric IgG4-GY5

IC50 [3]: 0.56 µg/mL
IC50 (ratio compared to GY5 mAb) [3]: 1.47
B2: humanized KFCC-GY5 antibody CSR02-VH4/VK2 (antibody, human IgG4, V domains shown)
VH: QVQLVQSGSELKKPGASVKVSCKASGYTFTSNYINWVRQAPGQGLEWIGNIYPSDGFTNYNQKFKDRVTITVDKSTSTAYMELSSLRSEDTAVYYCTRNFDVWGQGTTVTVSS
VL: DVVMTQSPLSLPVTLGQPASISCRSSQSLVHSNGNTYLQWYLQKPGQSPQLLIYTVSNRFSGVPDRFSGSGSGTDFTLKISRVEAEDVGVYFCSQSTHVPFTFGQGTKLEIKR
notes: also called VH4/VK2 (GY5 variant); CSR02-VH4NK2

IC50 [3]: 0.41 µg/mL
IC50 (ratio compared to GY5 mAb) [3]: 1.08
B3: humanized KFCC-GY5 antibody CSR02-VH5/VK3 (antibody, human IgG4, V domains shown)
VH: B2 VH with I48M
VL: B2 VL with T74P, F92Y
notes: also called VH5/VK3 (GY5 variant); CSR02-VH5NK3

IC50 [3]: 0.43 µg/mL
IC50 (ratio compared to GY5 mAb) [3]: 1.13
B4: humanized KFCC-GY5 antibody CSR02-VH4/VK3 (antibody, human IgG4, V domains shown)
VH: B2 VH
VL: B2 VL with T74P, F92Y
notes: also called VH4/VK3 (GY5 variant); VH4/VK3 IgG4

IC50 [3]: 0.6 µg/mL
IC50 (ratio compared to GY5 mAb) [3]: 1.58
B5: humanized KFCC-GY5 antibody CSR02-VH5/VK2 (antibody, human IgG4, V domains shown)
VH: B2 VH with I48M
VL: B2 VL
notes: also called VH5/VK2 (GY5 variant); CSR02-VH5NK2

IC50 [4]: 1.91 µg/mL
IC50 (ratio compared to GY4 mAb) [4]: 1.05
B6: humanized KFCC-GY4 antibody CSR01-VH5/VK2 (antibody, human IgG4, V domains shown)
VH: EVQLVQSGAEVKKPGASVKVSCTASGFNIKDYYIHWVRQAPGQGLEWIGWIDPENGDIEYAPKFQGRATITADTSTDTAYMELSSLRSEDTAVYYCLYQEGSWGQGTTVTVSS
VL: DVVMTQSPLSLPVTLGQPASISCKSSQSLLNSDGKTYLNWLQQRPGQSPRRLIYLVSKLDSGVPDRFTGSGSGTDFTLKISRVEAEDVGVYYCWQGTHFPFTFGGGTKVEIKR
notes: also called VH5/VK2 (GY4 variant); CSR01-VH5NK2

IC50 [4]: 2.94 µg/mL
IC50 (ratio compared to GY4 mAb) [4]: 1.61
B7: humanized KFCC-GY4 antibody CSR01-VH4/VK3 (antibody, human IgG4, V domains shown)
VH: B6 VH with L83F
VL: B6 VL with T68S
notes: also called VH4/VK3 (GY4 variant); CSR01-VH4NK3

IC50 [4]: 2.82 µg/mL
IC50 (ratio compared to GY4 mAb) [4]: 1.55
B8: humanized KFCC-GY4 antibody CSR01-VH5/VK3 (antibody, human IgG4, V domains shown)
VH: B6 VH
VL: B6 VL with T68S
notes: also called VH5/VK3 (GY4 variant); VH5/VK3 IgG4

IC50 [4]: 2.53 µg/mL
IC50 (ratio compared to GY4 mAb) [4]: 1.39
B9: humanized KFCC-GY4 antibody CSR01-VH4/VK2 (antibody, human IgG4, V domains shown)
VH: B6 VH with L83F
VL: B6 VL
notes: also called VH4/VK2 (GY4 variant); CSR01-VH4NK2

IC50 [4]: 2.18 µg/mL
IC50 (ratio compared to GY4 mAb) [4]: 1.2
B10: humanized KFCC-GY4 antibody CSR01-VH5/VK1 (antibody, human IgG4, V domains shown)
VH: B6 VH
VL: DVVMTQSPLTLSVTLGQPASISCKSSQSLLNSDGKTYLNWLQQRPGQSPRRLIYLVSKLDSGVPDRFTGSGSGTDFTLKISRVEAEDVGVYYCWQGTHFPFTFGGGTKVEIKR
notes: also called VH5/VK1 (GY4 variant); CSR01-VH5NK1

binding result (His-tagged human CEACAM6): no binding
binding result [5]: no binding
IC50 [4]: 1.82 µg/mL
IC50 (ratio compared to GY4 mAb) [4]: 1
IC50 [6]: 0.98 µg/mL
Kd [2]: 464 nM
koff [2]: 0.00701 s⁻¹
kon [2]: 15100 M⁻¹ s⁻¹
Kd [7]: 60 nM
B11: KFCC-GY4 monoclonal antibody (murine, hybridoma ATCC PTA-9963) (antibody, mouse IgG1, V domains shown)
VH: EVQLQQSGAEFVRSGASVKLSCTASGFNIKDYYIHWVKQRPEQGLEWIGWIDPENGDIEYAPKFQGKATMTADTSSNTAYLQFSSLTSEDTAVYYCLYQEGSWGQGTTLTVSS
VL: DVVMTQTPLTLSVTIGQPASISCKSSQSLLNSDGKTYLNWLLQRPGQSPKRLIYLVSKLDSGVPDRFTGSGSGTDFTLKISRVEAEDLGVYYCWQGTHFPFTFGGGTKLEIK
notes: also called GY4 mAB; KFCC-GY4 mAb

IC50 [6]: 0.8 µg/mL
Kd [2]: 406 nM
koff [2]: 0.00212 s⁻¹
kon [2]: 5210 M⁻¹ s⁻¹
B12: chimeric KFCC-GY4 antibody (CSR01) (antibody, human IgG4, V domains shown)
VH: B11 VH
VL: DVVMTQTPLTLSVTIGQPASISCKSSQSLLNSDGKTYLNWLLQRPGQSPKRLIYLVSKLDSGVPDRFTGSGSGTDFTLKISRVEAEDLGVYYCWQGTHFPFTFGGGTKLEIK
notes: also called Chimeric GY4; chimeric IgG4-GY4
